For 94 variants, protein stability index results are on record in the supplement of paper PMC10567573.

First the molecules themselves.
B1: LRRC45 (parent)
chain: DLSAANEKNLLLQNQVDELERKFR
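Further: lentivirally expressed fusions sorted by FACS into six bins by GFP to DsRed ratio, PSI derived from sequencing read proportions per bin multiplied by bin number.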

Variants of B1 are the subject of this data set. Description: protein stability index of a GFP-peptide fusion (GPS, HEK-293T) (PSI 1-6); higher = more stable. Conditions: c terminus: a fixed tail appended.
For the variant DLSAANPKNLLLQNQVDELERKFR, the protein stability index turned out to be 4.31. Regarding DLSAANWKNLLLQNQVDELERKFR, the protein stability index worked out at 2.72. In the case of DLSAANQKNLLLQNQVDELERKFR, the protein stability index stood at 3.63. DLSAANSKNLLLQNQVDELERKFR: the protein stability index came out at 3.74.

Take DLSAANVKNLLLQNQVDELERKFR: the protein stability index was found to be 3.46. For DLSAANRKNLLLQNQVDELERKFR, the protein stability index turned out to be 3.84. Turning to DLSAANTKNLLLQNQVDELERKFR, the protein stability index was 3.69. For DLSAANYKNLLLQNQVDELERKFR, the protein stability index stood at 2.98.

As for DLSAANEKNGLLQNQVDELERKFR, the protein stability index came out at 4.77. With DLSAANEKNYLLQNQVDELERKFR, the protein stability index is 3.71.

On to DLSAANEKNSLLQNQVDELERKFR, for which the protein stability index was found to be 4.45.

For DLSAANEKNCLLQNQVDELERKFR, the protein stability index was determined as 4.07. Regarding DLSAANEKNILLQNQVDELERKFR, the protein stability index was 3.58. With DLSAANEKNDLLQNQVDELERKFR, the protein stability index is 4.86.

As to DLSAANEKNKLLQNQVDELERKFR, the protein stability index amounted to 4.

For DLSAANEKNALLQNQVDELERKFR, the protein stability index was found to be 4.18. The figure for DLSAANEKNQLLQNQVDELERKFR is 4.51. For DLSAANEKNRLLQNQVDELERKFR the value was 4.06; for DLSAANEKNPLLQNQVDELERKFR, 4.75; for DLSAANEKNNLLQNQVDELERKFR, 4.17. For DLSAANEKNVLLQNQVDELERKFR the value was 4.39; for DLSAANEKNFLLQNQVDELERKFR, 3.94; for DLSAANEKNTLLQNQVDELERKFR, 4.26.

Consider DLSAANEKNHLLQNQVDELERKFR, for which the protein stability index amounted to 4.62.

Consider DLSAANEKNMLLQNQVDELERKFR, for which the protein stability index was 4.09. The figure for DLSAANEKNWLLQNQVDELERKFR is 3.89; for DLSAANEKNELLQNQVDELERKFR it is 4.94; for DLSAANEKNLVLQNQVDELERKFR it is 3.96. As for DLSAANEKNLDLQNQVDELERKFR, the protein stability index was 4.94. For DLSAANEKNLWLQNQVDELERKFR, the protein stability index was 3.89. For DLSAANEKNLQLQNQVDELERKFR the value was 4.31. For DLSAANEKNLRLQNQVDELERKFR the value was 4.04. The figure for DLSAANEKNLELQNQVDELERKFR is 4.84; for DLSAANEKNLFLQNQVDELERKFR it is 4.13.

As for DLSAANEKNLSLQNQVDELERKFR, the protein stability index was found to be 4.31. For DLSAANEKNLKLQNQVDELERKFR the value was 4.57; for DLSAANEKNLTLQNQVDELERKFR, 3.86. In the case of DLSAANEKNLMLQNQVDELERKFR, the protein stability index came out at 3.56. The figure for DLSAANEKNLHLQNQVDELERKFR is 4.59; for DLSAANEKNLILQNQVDELERKFR it is 4.46; for DLSAANEKNLPLQNQVDELERKFR it is 4.32. Consider DLSAANEKNLCLQNQVDELERKFR, for which the protein stability index was 4.15. As to DLSAANEKNLNLQNQVDELERKFR, the protein stability index was 4.5. For DLSAANEKNLALQNQVDELERKFR, the protein stability index stood at 4.42. With DLSAANEKNLGLQNQVDELERKFR, the protein stability index worked out at 4.32. The figure for DLSAANEKNLYLQNQVDELERKFR is 4.2; for DLSAANEKNLLLQNIVDELERKFR it is 3.38. DLSAANEKNLLLQNVVDELERKFR: the protein stability index came out at 3.48. For the variant DLSAANEKNLLLQNLVDELERKFR, the protein stability index was 3.01. As for DLSAANEKNLLLQNCVDELERKFR, the protein stability index came out at 3.84. For DLSAANEKNLLLQNGVDELERKFR the value was 4.36; for DLSAANEKNLLLQNMVDELERKFR, 3.77. The figure for DLSAANEKNLLLQNSVDELERKFR is 4.42; for DLSAANEKNLLLQNAVDELERKFR it is 3.57; for DLSAANEKNLLLQNPVDELERKFR it is 3.71. For DLSAANEKNLLLQNNVDELERKFR the value was 3.75. DLSAANEKNLLLQNTVDELERKFR: the protein stability index came to 3.35.

On to DLSAANEKNLLLQNWVDELERKFR, for which the protein stability index was 3.27. The figure for DLSAANEKNLLLQNKVDELERKFR is 4.06; for DLSAANEKNLLLQNFVDELERKFR it is 2.32. Regarding DLSAANEKNLLLQNYVDELERKFR, the protein stability index stood at 2.76. For DLSAANEKNLLLQNHVDELERKFR the value was 4.04; for DLSAANEKNLLLQNDVDELERKFR, 4.4. For DLSAANEKNLLLQNEVDELERKFR the value was 4.7; for DLSAANEKNLLLQNRVDELERKFR, 3.5. The figure for DLSAANEKMLLLQNQVDELERKFR is 4.24; for DLSAANEKHLLLQNQVDELERKFR it is 4.2; for DLSAANEKKLLLQNQVDELERKFR it is 4.11. Consider DLSAANEKPLLLQNQVDELERKFR, for which the protein stability index is 4.3.

In the case of DLSAANEKALLLQNQVDELERKFR, the protein stability index amounted to 4.77. Consider DLSAANEKCLLLQNQVDELERKFR, for which the protein stability index stood at 4.23. The figure for DLSAANEKLLLLQNQVDELERKFR is 3.54. The figure for DLSAANEKFLLLQNQVDELERKFR is 3.98; for DLSAANEKELLLQNQVDELERKFR it is 4.89; for DLSAANEKDLLLQNQVDELERKFR it is 4.91. The figure for DLSAANEKSLLLQNQVDELERKFR is 4.63; for DLSAANEKVLLLQNQVDELERKFR it is 4.12; for DLSAANEKQLLLQNQVDELERKFR it is 4.57. Turning to DLSAANEKRLLLQNQVDELERKFR, the protein stability index was determined as 4.02. In the case of DLSAANEKGLLLQNQVDELERKFR, the protein stability index was 3.93. The figure for DLSAANEKWLLLQNQVDELERKFR is 3.79.

Take DLSAANEKYLLLQNQVDELERKFR: the protein stability index amounted to 3.67. For DLSAANEKILLLQNQVDELERKFR, the protein stability index was 4.21. DLSAANEKTLLLQNQVDELERKFR: the protein stability index was found to be 4.59. The figure for DLSAANEKNLLLKNQVDELERKFR is 4.32; for DLSAANEKNLLLPNQVDELERKFR it is 3.8. The figure for DLSAANEKNLLLWNQVDELERKFR is 3.3. As for DLSAANEKNLLLGNQVDELERKFR, the protein stability index amounted to 4.11. The figure for DLSAANEKNLLLSNQVDELERKFR is 3.98. Turning to DLSAANEKNLLLLNQVDELERKFR, the protein stability index was 3.96. For DLSAANEKNLLLDNQVDELERKFR the value was 4.63. For DLSAANEKNLLLFNQVDELERKFR, the protein stability index was found to be 3.44.

For the variant DLSAANEKNLLLCNQVDELERKFR, the protein stability index came out at 4.03. Turning to DLSAANEKNLLLANQVDELERKFR, the protein stability index was determined as 4.25.
